Measured values reported in publication PMC12412572, “Natural Allelic Variations in IbCHYR1–IbZnFR Complex Regulate Fusarium Root Rot Resistance in Sweet Potato”.

T1: IbZnFR (CCCH-type zinc-finger protein) (Ipomoea batatas, UniProt A0A6M2VA70 1-565)
T1 sequence: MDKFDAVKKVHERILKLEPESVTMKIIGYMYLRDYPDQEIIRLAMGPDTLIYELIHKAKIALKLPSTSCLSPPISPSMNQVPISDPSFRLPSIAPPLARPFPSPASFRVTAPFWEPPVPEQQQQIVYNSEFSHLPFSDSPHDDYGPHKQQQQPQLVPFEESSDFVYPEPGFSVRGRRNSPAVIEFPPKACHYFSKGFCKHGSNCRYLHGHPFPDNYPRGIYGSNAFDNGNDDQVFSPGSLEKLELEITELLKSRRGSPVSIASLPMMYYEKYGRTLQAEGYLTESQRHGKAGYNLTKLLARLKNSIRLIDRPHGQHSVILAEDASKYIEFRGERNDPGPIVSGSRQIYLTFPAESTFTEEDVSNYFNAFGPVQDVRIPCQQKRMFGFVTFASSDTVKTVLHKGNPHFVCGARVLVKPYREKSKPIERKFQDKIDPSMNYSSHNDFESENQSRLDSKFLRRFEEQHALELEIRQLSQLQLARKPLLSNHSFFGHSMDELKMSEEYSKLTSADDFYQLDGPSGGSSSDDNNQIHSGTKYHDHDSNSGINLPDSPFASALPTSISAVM

B1: IbCSLE1 promoter wt probe (dsDNA)
DNA 1: ATAGTCTTTGTAGGGAGACACAGACACCAT
DNA 2: ATGGTGTCTGTGTCTCCCTACAAAGACTAT
B2: IbMRL7L promoter wt probe (dsDNA)
DNA 1: CTTCTTATCCCTCTAACTTTCCTACA
DNA 2: TGTAGGAAAGTTAGAGGGATAAGAAG
B3: IbMDAR4 promoter wt probe (dsDNA)
DNA 1: ACATTTACCCGGGAGAACGGATAACG
DNA 2: CGTTATCCGTTCTCCCGGGTAAATGT
B4: IbCOMT promoter wt probe (dsDNA)
DNA 1: AAACCGTTCTCTCTCTTCTTCTTCATCTTC
DNA 2: GAAGATGAAGAAGAAGAGAGAGAACGGTTT
B5: IbPR5 promoter wt probe (dsDNA)
DNA 1: ATTGTACTAAAAGGGAGAGGATACAAGGTT
DNA 2: AACCTTGTATCCTCTCCCTTTTAGTACAAT

Each binder was assayed against T1, IbZnFR (CCCH-type zinc-finger protein) (assay: EMSA; LightShift Chemiluminescent EMSA Kit (Thermo), manufacturer's instructions; buffer, salt, pH and temperature not stated). Conditions: protein: recombinant; tags: His (pET-28a); label: 5' biotin; blunt.

Binding result, binds:
B1
B2
B3
B4
B5
